For assay [1], the target named is full-length Stx4 (UniProt Q12846). As to the kind of experiment: AlphaScreen or HTRF. (Alpha assays give light when donor and acceptor beads are brought close together.)
Assay [2] addresses full-length Stx2 (human) (UniProt P32856). As to the kind of experiment: AlphaScreen or HTRF.
Assay [3] has as its target full-length SNAP23 (UniProt O00161). Description: AlphaScreen or HTRF.
Assay [4] addresses Stx3 145-161 peptides (human) (UniProt Q13277). Description: peptide or protein array.
Assay [5] has as its target SNAP25 (human) (UniProt P60880). As to the kind of experiment: AlphaScreen or HTRF.
Chain of UniProt P60880 (P60880 whole entry): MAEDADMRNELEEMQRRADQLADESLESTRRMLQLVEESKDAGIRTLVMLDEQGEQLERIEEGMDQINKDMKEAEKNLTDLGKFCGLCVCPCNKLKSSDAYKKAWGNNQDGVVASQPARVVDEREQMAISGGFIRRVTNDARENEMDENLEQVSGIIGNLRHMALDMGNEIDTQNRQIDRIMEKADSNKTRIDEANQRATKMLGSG

Chain of UniProt P32856 (P32856 whole entry): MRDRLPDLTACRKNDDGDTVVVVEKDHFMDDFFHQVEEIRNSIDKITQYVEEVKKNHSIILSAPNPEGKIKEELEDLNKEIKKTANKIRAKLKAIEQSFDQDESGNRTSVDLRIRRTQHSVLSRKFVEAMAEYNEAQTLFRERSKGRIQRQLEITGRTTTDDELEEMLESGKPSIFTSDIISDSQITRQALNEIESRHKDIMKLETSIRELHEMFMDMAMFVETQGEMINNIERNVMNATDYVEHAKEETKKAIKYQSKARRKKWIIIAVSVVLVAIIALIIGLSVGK
Chain of UniProt Q12846 (Q12846 whole entry): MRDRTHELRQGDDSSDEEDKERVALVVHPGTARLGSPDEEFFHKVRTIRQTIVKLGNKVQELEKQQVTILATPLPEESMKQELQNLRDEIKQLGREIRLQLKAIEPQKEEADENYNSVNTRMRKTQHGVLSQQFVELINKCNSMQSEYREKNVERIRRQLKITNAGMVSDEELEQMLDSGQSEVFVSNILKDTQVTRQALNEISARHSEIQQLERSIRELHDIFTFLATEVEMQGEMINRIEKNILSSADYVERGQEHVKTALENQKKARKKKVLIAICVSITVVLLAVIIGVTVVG
Chain of UniProt O00161 (O00161 whole entry): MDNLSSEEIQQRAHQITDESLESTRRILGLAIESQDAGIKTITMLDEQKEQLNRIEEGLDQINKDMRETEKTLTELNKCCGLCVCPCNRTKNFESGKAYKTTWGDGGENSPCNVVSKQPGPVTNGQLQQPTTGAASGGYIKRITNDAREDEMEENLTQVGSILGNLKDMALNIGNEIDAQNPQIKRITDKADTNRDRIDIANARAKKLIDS

“His-tagged recombinant Gβ1γ2 (from UniProt P62873;P59768) (complex)”: the concentration giving a half-maximal response (EC50) in assay [1] was 0.0921 µM; in assay [2], 0.0648 µM; in assay [3], 0.0782 µM. In assay [4], the fold weaker binding than Stx2 144-160 was determined as 5 fold.
In assay [5], “His-tagged recombinant Gβ1γ2 (from UniProt P62873;P59768) (complex; other documents disagree on this pair)” had an EC50 of 0.0452 µM.

A word on the EC50: it is the concentration giving half of the maximal effect. Read a low EC50 as an effect from little substance.
